The values that follow come from paper PMC7321962.

In data set [1] the target is T1, XPG FF67,68AA (Homo sapiens, UniProt P28715 1-1186, F67A;F68A).
T1 sequence: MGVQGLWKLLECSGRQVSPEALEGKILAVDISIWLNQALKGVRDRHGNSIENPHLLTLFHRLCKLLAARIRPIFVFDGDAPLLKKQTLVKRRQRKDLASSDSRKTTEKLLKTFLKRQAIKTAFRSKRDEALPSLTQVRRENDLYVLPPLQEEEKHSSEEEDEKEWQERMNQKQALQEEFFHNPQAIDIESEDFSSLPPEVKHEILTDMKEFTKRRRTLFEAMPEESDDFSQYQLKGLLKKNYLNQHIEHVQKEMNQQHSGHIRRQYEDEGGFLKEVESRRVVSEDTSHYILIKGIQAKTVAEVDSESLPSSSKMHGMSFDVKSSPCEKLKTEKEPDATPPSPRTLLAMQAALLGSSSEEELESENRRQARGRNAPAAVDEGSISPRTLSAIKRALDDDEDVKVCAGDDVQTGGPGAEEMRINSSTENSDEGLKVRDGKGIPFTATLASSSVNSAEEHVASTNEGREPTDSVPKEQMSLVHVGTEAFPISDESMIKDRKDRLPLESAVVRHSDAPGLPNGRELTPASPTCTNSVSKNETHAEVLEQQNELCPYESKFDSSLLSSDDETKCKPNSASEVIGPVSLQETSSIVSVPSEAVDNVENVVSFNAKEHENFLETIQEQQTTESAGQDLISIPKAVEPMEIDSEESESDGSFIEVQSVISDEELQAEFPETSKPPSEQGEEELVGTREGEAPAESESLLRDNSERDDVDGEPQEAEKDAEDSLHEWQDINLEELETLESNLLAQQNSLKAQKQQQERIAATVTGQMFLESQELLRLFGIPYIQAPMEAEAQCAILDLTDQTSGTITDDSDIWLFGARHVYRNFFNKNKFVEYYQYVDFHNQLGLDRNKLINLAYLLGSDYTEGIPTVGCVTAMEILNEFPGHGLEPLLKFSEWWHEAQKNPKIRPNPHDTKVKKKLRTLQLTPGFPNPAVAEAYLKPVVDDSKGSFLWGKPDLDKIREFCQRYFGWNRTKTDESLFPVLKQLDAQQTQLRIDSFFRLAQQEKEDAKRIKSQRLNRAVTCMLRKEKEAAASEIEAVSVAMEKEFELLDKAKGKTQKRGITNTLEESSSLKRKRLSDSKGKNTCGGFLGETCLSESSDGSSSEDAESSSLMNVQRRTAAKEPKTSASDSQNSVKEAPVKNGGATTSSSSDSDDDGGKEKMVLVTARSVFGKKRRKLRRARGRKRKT
The data set can be described thus: EMSA.

Data set [2] concerns the target T2, XPG-FLAG (full-length WT) (Homo sapiens, UniProt P28715 1-1186).
T2 sequence: T1 sequence with A67F, A68F
The data set can be described thus: EMSA. (In general: In EMSA bound probe runs differently from free probe, usually more slowly.)

Positions count from the first letter of the chain named.

B1: HP15T/C 15-nt bubble DNA (mixed)
DNA 1: CGCGAAGCGGGGCAGACAACGTGGCGCTGTTTTTTTTTTTTTTTGTGTCCTAGCACAGCGTATG
DNA 2: CGCGAAGCGCATACGCTGTGCTAGGACACCCCCCCCCCCCCCCCCAGCGCCACGTTGTCTGCCC
With B1, the binding result in data set [1] and in data set [2] was “binds” each time.
